According to PMC11347163, “Structural analysis of the BisI family of modification dependent restriction endonucleases”:

Assays:
[1] = molecular target: Eco15I_Ntd (N-terminal catalytic domain of Eco15I) (Escherichia coli strain 541-15); assay: crystal structure; sitting drop vapor diffusion at 18°C; proteins crystallised without DNA and as specific complexes with tetra-methylated GCNGC dsDNA, with Ca2+
[2] = molecular target: NhoI (Nitrolancea hollandica); assay: as above
[3] = molecular target: T1, Eco15I_Ntd (N-terminal catalytic domain of Eco15I) (UniProt A0A0L6ZWS4); assay: SPR; 1 mM Ca2+; 50 mM KCl; SPR: 20 mM HEPES pH 7.8, 50 or 150 mM KCl, 1 mM CaCl2, 1 mM DTT, 0.05% Tween-20, 25 C; EMSA: 20 mM HEPES pH 7.8, 50 mM KCl, 1 mM DTT, 1 mM CaCl2, on ice 30 min, unlabeled unmodified oligo or salmon sperm DNA competitor; settings: protein: recombinant; tags: 6xHis-SUMO removed by Ulp1; chain copies: 2; label: 5' biotin
T1 sequence: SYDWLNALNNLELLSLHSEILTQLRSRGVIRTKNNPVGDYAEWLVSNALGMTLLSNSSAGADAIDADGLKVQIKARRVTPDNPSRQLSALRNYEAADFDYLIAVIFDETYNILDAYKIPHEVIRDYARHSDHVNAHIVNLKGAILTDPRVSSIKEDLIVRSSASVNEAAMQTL

[4] = molecular target: T2, Eco15I_Ctd (C-terminal domain of Eco15I) (UniProt A0A0L6ZWS4); assay: as above; settings: protein: recombinant; label: 5' biotin
T2 sequence: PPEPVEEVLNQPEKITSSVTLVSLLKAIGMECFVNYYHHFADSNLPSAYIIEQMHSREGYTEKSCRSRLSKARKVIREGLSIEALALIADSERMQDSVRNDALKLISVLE

[5] = molecular target: T1, Eco15I_Ntd (N-terminal catalytic domain …); assay: crystal structure; Ca2+ in active site; SPR: 20 mM HEPES pH 7.8, 50 or 150 mM KCl, 1 mM CaCl2, 1 mM DTT, 0.05% Tween-20, 25 C; EMSA: 20 mM HEPES pH 7.8, 50 mM KCl, 1 mM DTT, 1 mM CaCl2, on ice 30 min, unlabeled unmodified oligo or salmon sperm DNA competitor; settings: protein: recombinant; tags: 6xHis-SUMO removed by Ulp1; chain copies: 2; blunt
NhoI = molecular target: T3, NhoI (UniProt I4EG67); assay: as above; settings: protein: recombinant; tags: 6xHis-SUMO removed by Ulp1; chain copies: 2; blunt
T3 sequence: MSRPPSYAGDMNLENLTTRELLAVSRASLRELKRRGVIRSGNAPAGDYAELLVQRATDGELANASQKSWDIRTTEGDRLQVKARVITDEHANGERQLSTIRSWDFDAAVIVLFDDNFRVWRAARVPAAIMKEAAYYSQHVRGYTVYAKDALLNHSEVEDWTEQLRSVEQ

Q: “Eco15I_Ntd (N-terminal catalytic domain of Eco15I) (domain or fragment)” was tested. Which stoichiometry N [1] did it give?
A: Its stoichiometry N is 2.

Q: How did the stoichiometry N [2] turn out when NhoI (enzyme) was run?
A: Its stoichiometry N is 2.

B1: SPR duplex, four 5mC in GCNGC (dsDNA)
DNA 1: CGGTTGAGCAGCACCTCAGA
DNA 2: TCTGAGGTGCTGCTCAACCG
modifications: 5mC at both internal and both external cytosines
Q: Which results are given for B1?
A: binding result [3]: binds; binding result [4]: no binding

B2: Eco15I_Ntd co-crystal duplex, tetramethylated GCAGC (dsDNA)
DNA 1: AAGCAGCAA
DNA 2: TTGCTGCTT
modifications: 5mC at positions 4 and 7 of strand 1; 5mC at positions 4 and 7 of strand 2
Q: Does B2 bind [5]?
A: Result: binds

B3: NhoI co-crystal duplex, tetramethylated GCAGC (dsDNA)
DNA 1: CTGCAGCTC
DNA 2: GAGCTGCAG
modifications: 5mC at positions 4 and 7 of strand 1; 5mC at positions 4 and 7 of strand 2
Q: Does B3 bind (NhoI)?
A: Result: binds
